Test results taken from PMC10018337.
Numbering of substitutions follows the chain as printed.

Experiments:
Test in all cases: EMSA
CeMETT10-FLΔL = target: T1, CeMETT10-FLΔL (Caenorhabditis elegans, UniProt Q09357 1-479, del386-430)
T1 sequence: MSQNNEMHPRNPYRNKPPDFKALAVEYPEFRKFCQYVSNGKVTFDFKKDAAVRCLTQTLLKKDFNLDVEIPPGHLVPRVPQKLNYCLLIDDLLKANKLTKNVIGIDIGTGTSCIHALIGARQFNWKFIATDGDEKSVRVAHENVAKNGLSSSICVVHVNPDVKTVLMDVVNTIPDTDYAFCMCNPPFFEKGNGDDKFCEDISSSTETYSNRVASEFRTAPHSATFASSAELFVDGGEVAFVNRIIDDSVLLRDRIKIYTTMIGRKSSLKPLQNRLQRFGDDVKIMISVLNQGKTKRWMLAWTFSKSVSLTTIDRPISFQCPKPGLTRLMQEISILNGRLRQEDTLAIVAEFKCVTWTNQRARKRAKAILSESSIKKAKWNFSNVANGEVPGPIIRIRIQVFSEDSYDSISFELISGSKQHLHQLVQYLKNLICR

CeMETT10-MTD = target: T2, CeMETT10-MTD (Caenorhabditis elegans, UniProt Q09357 1-314)
T2 sequence: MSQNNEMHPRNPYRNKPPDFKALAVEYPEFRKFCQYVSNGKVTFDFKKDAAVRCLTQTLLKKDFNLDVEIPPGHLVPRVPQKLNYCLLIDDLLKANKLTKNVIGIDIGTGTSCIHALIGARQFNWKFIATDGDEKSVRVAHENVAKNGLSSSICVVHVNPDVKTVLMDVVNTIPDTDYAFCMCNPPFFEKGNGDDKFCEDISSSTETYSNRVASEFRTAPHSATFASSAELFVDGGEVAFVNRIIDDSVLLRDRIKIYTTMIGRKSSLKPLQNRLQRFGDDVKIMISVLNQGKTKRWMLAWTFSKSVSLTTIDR

CeMETT10-FLΔL_RRR/7E = target: T3, CeMETT10-FLΔL_RRR/7E (Caenorhabditis elegans, UniProt Q09357 1-479, R360E;A361E;R362E;K363E;R364E;A365E;K366E;del386-430)
T3 sequence: T1 sequence with R360E, A361E, R362E, K363E, R364E, A365E, K366E

B1: sams-hp-ls (structured_RNA)
RNA: GGCAACAAUAUGUUUCUUUACCUGUUACAACGGUUACUUUGAUUACAGAAACGGUGACUAAAACGGGUAUGAUCAUGUUGUGCCC
With B1 as the binder, how does the Kd (CeMETT10-FLΔL) read?
The Kd was 0.14 µM.

And the Kd (CeMETT10-MTD)?
Its Kd is 22.3 µM.

And the Kd (CeMETT10-FLΔL_RRR/7E)?
Its Kd is 8.3 µM.
